Laboratory results as given in article PMC6783653, “TIP30 counteracts cardiac hypertrophy and failure by inhibiting translational elongation” (EMBO Molecular Medicine, 2019).

Target: T1, GST-tagged eEF1A1 (rat, UniProt P62630 1-462)
T1 construct: eEF1A1, rat, open reading frame BC128723.1; Cloned into pGEX-4T1, which should place GST at the N-terminus (surmise); also called GST-eEF1A1
T1 sequence (looked up): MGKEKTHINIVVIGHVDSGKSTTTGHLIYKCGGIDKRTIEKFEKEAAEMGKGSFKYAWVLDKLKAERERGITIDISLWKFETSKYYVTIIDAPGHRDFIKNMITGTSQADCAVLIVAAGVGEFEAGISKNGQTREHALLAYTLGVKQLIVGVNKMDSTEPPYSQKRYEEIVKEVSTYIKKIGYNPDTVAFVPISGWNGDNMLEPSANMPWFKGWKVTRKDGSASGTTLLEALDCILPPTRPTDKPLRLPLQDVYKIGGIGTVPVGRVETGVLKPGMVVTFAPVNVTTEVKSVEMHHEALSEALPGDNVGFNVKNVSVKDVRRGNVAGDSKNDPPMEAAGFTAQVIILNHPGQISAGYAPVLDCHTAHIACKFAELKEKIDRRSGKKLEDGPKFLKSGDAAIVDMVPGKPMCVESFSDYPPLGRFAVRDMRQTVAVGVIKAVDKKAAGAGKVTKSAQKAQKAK
Test: pull-down; GST or GST-eEF1A1 on glutathione agarose beads, purified eEF1B2-His; purified TIP30-His added in increasing amounts
Conditions: both partners purified

binding result: binds
B1: purified eEF1B2-His (natural protein, rat, UniProt A6IPG1 1-225, looked up)
chain: MGFGDLKTPAGLQVLNDYLADKSYIEGYVPSQADVAVFEAISGPPPADLCHALRWYNHIKSYEKEKASLPGVKKSLGKYGPVSVADTTGSGAADAKDDDDIDLFGSDDEEESEDAKRLREERLAQYESKKAKKPAVVAKSSILLDVKPWDDETDMTKLEECVRSIQADGLVWGSSKLVPVGYGIKKLQIQCVVEDDKVGTDMLEEQITAFEDYVQSMDVAAFNKI
notes: eEF1B2, rat, open reading frame NM_001108799.2
